The values that follow come from publication PMC10696041.

In this experiment the target is C-propeptide of collagen III. Nature of the experiment: SPR; C-propeptide III immobilised by amine coupling on CM5; 10 mM HEPES pH 7.4, 0.15 M NaCl, 5 mM CaCl2, 0.05% P20, 25 °C. On the technique in general: SPR reads the build-up and loss of mass on a sensor chip optically.

The term Kd denotes the constant that tells how readily two partners part at equilibrium. Read a high Kd as a looser complex.

B1: procollagen C-proteinase enhancer-2 with N-terminal 6His-tag (natural protein)
chain: QSPERPVFTCGGILTGESGFIGSEGFPGVYPPNSKCTWKITVPEGKVVVLNFRFIDLESDNLCRYDFVDVYNGHANGQRIGRFCGTFRPGALVSSGNKMMVQMISDANTAGNGFMAMFSAAEPNERGDQYCGGLLDRPSGSFKTPNWPDRDYPAGVTCVWHIVAPKNQLIELKFEKFDVERDNYCRYDYVAVFNGGEVNDARRIGKYCGDSPPAPIVSERNELLIQFLSDLSLTADGFIGHYIFRPKKLPTTTEQPVTTTFPVTTGLKPTVALCQQKCRRTGTLEGNYCSSDFVLAGTVITTITRDGSLHATVSIINIYKEGNLAIQQAGKNMSARLTVVCKQCPLLRRGLNYIIMGQVGEDGRGKIMPNSFIMMFKTKNQKLLDALKNKQC
For B1, the dissociation constant (Kd) worked out at 45 nM.
